Data taken from publication PMC7791120 (2021).

Molecular target: T1, purified TRIB2 protein (ab186094, Abcam) (Homo sapiens (Human), UniProt Q92519)
T1 chain: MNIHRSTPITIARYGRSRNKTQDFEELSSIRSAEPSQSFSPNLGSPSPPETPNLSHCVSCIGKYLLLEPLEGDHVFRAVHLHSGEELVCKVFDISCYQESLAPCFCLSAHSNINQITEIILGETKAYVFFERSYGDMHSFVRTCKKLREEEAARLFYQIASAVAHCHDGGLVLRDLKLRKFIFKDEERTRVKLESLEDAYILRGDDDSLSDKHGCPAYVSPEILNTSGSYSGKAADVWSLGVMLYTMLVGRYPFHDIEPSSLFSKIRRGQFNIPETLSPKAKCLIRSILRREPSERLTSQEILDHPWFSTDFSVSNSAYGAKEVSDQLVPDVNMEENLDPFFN
Experiment: in vitro reciprocal co-IP

binding result: binds
B1: purified PCBP2 protein (H00005094-P01, Abnova) (protein)
chain: MDTGVIEGGLNVTLTIRLLMHGKEVGSIIGKKGESVKKMREESGARINISEGNCPERIITLAGPTNAIFKAFAMIIDKLEEDISSSMTNSTAASRPPVTLRLVVPASQCGSLIGKGGCKIKEIRESTGAQVQVAGDMLPNSTERAITIAGIPQSIIECVKQICVVMLETLSQSPPKGVTIPYRPKPSSSPVIFAGGQDRYSTGSDSASFPHTTPSMCLNPDLEGPPLEAYTIQGQYAIPQPDLTKLHQLAMQQSHFPMTHGNTGFSGIESSSPEVKGYWGLDASAQTTSHELTIPNDLIGCIIGRQGAKINEIRQMSGAQIKIANPVEGSTDRQVTITGSAASISLAQYLINVRLSSETGGMGSS
